Paper PMC3667669 (2014)
Where no end group is shown, it is not given here.

Molecular target: Cdc42 (Homo sapiens, UniProt P60953)
Assay: fluorescence intensity titration

Cdc42, sequence (P60953 1-188): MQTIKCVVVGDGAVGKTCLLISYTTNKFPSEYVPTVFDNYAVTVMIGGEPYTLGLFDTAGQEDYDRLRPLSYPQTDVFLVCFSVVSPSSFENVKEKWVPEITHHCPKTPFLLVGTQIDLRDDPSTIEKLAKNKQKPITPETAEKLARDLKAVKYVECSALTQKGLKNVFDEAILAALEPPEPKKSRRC

Kd	Binder
0.186 µM	WASP CBD (Cdc42 binding domain) (protein, also: MBP fusion, mero87 dye label, site not given here) KKKISKADIGAPSGFKHVSHVGWDPQNGFDVNNLDPDLRSLFSRAGISEAQLTDAETSK
0.144 µM	WASP CBD (Cdc42 binding domain) (protein, also: MBP fusion, mero61 dye label, site not given here) KKKISKADIGAPSGFKHVSHVGWDPQNGFDVNNLDPDLRSLFSRAGISEAQLTDAETSK
